To fix the notation:
B1: unnamed (protein)
chain: MNRSILERFVVGTSALLFSISAYSFTPSPTPEPEPEPCQGVCDFTRGPNPTSSYLEASRGPYSVNTVDVSRSVSGFGGGTIHYPTNTTGKMGAIAIVPGFLAAESSIAWWGPRLASHGFVVITIATNSTFDQPASRESQLSRALDYVINQSNSSGSPIAGKVDSTRVGAMGWSMGGGGTLKIASGSRLSAAIPLAPWHTGSNDFDQIDTPTMIIACENDTTAPVGRHASPFYNRISNATDKAYLEINNGGHSCANGGGTNAGLLGKYGVSWMKRFIDKDTRYSQFLCGPNHASNSAISEYRDTCSY
B2: unnamed (protein)
chain: MTEKDTSMKFFQATLSLTVGVLLTTALSGTALAESAYLRGPAPTVASVEAPAGPYQVTSQVMKDPVGYKAGTVFYPSDAQGQSFGLIVVAPGFIETQSWNAWWAQYLASHGFVVINIDTQSTLEFPAARAKEELAALNDVVRRSTQPDSPLFGLVDASRQGAMGHSMGGGATLEIAKANPYLKAIVPMAPFQTSGTDYSKLTVPTLIMACKGDVVATASSHSEPIYKSLSPSLDKAYLEMQGGAGHPCTTSVGTSDKVRTLAGKYGLAWFKRFLDEDTRYSQFLCGIPHGLDMFGKVISGYKGNCPY
B3: unnamed (protein)
chain: MMAAAGSGGTSGGVSGSTGSAGAAGGATGAAGGGASSTGGFVREDAPTEMSTRAAKGKYTVKSYTSGFSGTGKDFLAGTLYYPTDADPPFASVAVVPGFTALQNSIMDWGPFLASHGIVTMTIDTLTTSDPPAQRADELMGALKSIAGENTRDGSPIKGQLDTTRQCVSGWSMGGGGTLIAASMHPELKCAVSFAAWQPTGGAMNKVPALMFEGTTDPLAAGMSQGFYDQTPDSTPKMIFEVAGASHDVANSPHNSMGIIGEYGLSWFKVYLEGDMRYKQFLLLP
B4: unnamed (protein)
chain: MQVRLSSLCRTALVALGLAWAAATAHAQTIDDASDISLAIGPAPTSSALNALNGPFAVSTSIVVLPVGFGGGTIYYPTQAGKYGVIALCPGFTATSTSLAWLARRLASWGFVVVNMNTVTVFDFPSSRATEMRVALRYATNWSSATVRARIDPNRQAVAGHSMGGGGALIAAVRNPELKAAYALMPWSPTYSPTSMKVPTMLVAADADTIAPAALMVRPYYKLIPATVPKAYAELRWGNHFSPILVNTPIGRYGAAWMKRFVDGDTRYQDFLCGAAHQYYANALVFASYLKNCPY
B5: unnamed (protein)
chain: MKTTALRIKGLSIAAAIALSTLAPAAFSQTSPPTSASLNATSGPLSVSTASVFLPVGFGGGTIYYPTVAGKYGVIAISPGFTATESSIAWLGRRIATHGFVVITLNTNTTLDQPDSRATQLMAALRYVLNSSGSAVRARIDPTRLAVAGHSMGGGGSLIAARDNPTLKASYPMTPWNISSNFSTVRVPTMIIGADGDTIAPVASHARPFYASLPSSTLKAYGELNGATHFAPNTTNTPIGRYAVTWMKRFVDGDTRYSPFLCGAQHTSYATSRIFDRYNQNCPY
B6: unnamed (protein)
chain: MSLDVWEWSTEAGGDIRQWDYLGADNQKWRINDLGNGYHSIISAYNGLSLDVYEWSTSNGGDIRQWDYTGAENQQWAFQPTGTSGGGSTGGGSTSCVSSSDITSSKLSATGASGPYSVRSKGVSNWSASGFGGGTIWYPTNASACGRMPGIAVVPGFLSYESSIRWWGARLASWGYVVITIDTNSIYDQPPSRGRQLSDALDHIIYDSTTRNMVDPNRLGAIGWSMGGGGSIWLANNRPEVKAIIPQAPWYLTTTSTSKPAFYIACESDTVAPTYSHVDDFYRYSTGPKMKIEINNGSHWCANSGNGNEGTLGKAGISWMKRYINGDTRFNQFLCGQENYGSRYDVSDYDYASCP
B7: unnamed (protein)
chain: MFGCYGCTDGSIVSAPISTVGYSDIKVTFTRSSSGLDLGEAGIAEWSANGSTYTVIESSRSVSGAATFNLPSGAAGQSGLRVRFRVDASLSSEYYTVDTITVEGTSSGGGGGGGVQIGPDPTTSTLESSSGGSFSVQYQSVSSLSTSGFDGGRLYYPTTSGQYGGIVLCPGYTASSSSLAWWGERLASWGFIVLIIDTNSAYDQPSSRATQLMAGVAWLKARNNDSGHALYGKLRESDIAVGGHSMGGGGTLIALRDNPSLKTGFAMTPWNSSTNFSGITQPTFILGCESDSVAPNSSHSIPFYNSISSSVKKVYAEVDGASHFCPNSSDAKMGKYGIAWYKRFLDGDTRFQPWLCPSATGGN
B8: unnamed (protein)
chain: MKTSRHSTATTTLTRLARLALAAAAVLLSAAAQAQVVIFQENFNSGLGQFTASGTVSTSSGGARMQGCGGGTDGTITSSPISTVGFTNLKLSFDRTTTGLDSGEAGIAEYSVNGSTWTVIESTQSSSGRVTIALPAAAAGQAALRLRFRVNASLSSETYTVDNIPLAGTPGGNSAPGPGGTPYQRGPDPTAASLEASDGPFAVATLTVSSASGYGAGTIYYPTNTEGPFAAIAVVPGYTGTQSSIQWLGPRLASHGFVVITIDTNSLSDNPESRATQLMAALNQLVTLSNTSGHPIYGKVDSNRLGVMGHSMGGGGTLVAARDNPTLKAAIPLAPWYSSTNFSGVTVPTLVVACQSDTVAPVSSHALPMYNSIPSSTDKAYLEISGGDHLCVTTGNGNKAIQGKYVVAWMKRFLDNDTRYSPFLCGAPHQADLSGSAVSEYRDTCPY
B9: unnamed (protein)
chain: MDWPRPRCVRRRTSNGQRRSTTCRGDIPMSTRVTHSRLTLIRCLALAAPLMCLGLAQAQTSPPTSESLNARSGPLSIASENVSRLAARGFGGGTIYYPRTSGRYGLIAISPGFTATESSVAWIGEKLASHGFVAIVINTNSTLDQPSSRARQLRAALDHAISSASSTVRNRIDPSRQAVAGHSMGGGGSLIAAEDDPSLKAAFPLTPWNTSSSFTRVRVPSMIFGADGDTIAPVAVHARPFYGSIPRTTSKAYAELQSATHFAPNVRNEAIGRYGVAWMKRFMDGDTRYSTFLCGSEHDRYNTSLRFDQFQSNCPY
B10: unnamed (protein)
chain: MIIRYISRLALLAGAMTLSASLWAAPVPCRDCSTGYQRGDVPSTAELESRRGPYSVRTIRVSRLVNGFGGGTIYYSTESGGGQGIIAVVPGYLSLETTIQWWGPRLASWGFTVITMDTNTIYDQPTSRASQLSAALNYVINKGNDSRSPLYGLVDPNRTGVIGWSMGGGGALELSTRRNIQATIAQAPWHVGAGTFAQISTPTMILACQLDAVAPTAIHAKAFYNVIPRTTSKAYFEVRAGSHFCANTGYPNTDIIGRNGIAWMKRFIDNDTRYNQFLCGPNFESDFRISKYRDTCNY
B11: unnamed (protein)
chain: MMNSVMDRFTIAASAVLFSASAWSFTPTPDPDPTPPPQPCQVDCDFTRGPNPTSSYLEANSGPYSVGTVRVSSSVNGFGGGTIHYPTNTTGKMGAIAVVPGFTAGESSIAWWGPRLASHGFVVITIATNSGFDQPASRATQLSNALDYVISQSNSSSSAISGMVDASRLGAMGWSMGGGGALRLASGARLSAAIPLAPWHSGSNPFDQIETPTMIIACESDSTAPVGSHASPFYNRIPASTDKAYLEINNGDHRCANGGGSNGGLLGKYGVSWMKRFIDRDTRYQQFLCGPNHEANTAISEYRDTCAY
B12: unnamed (protein)
chain: MKHFHRFGATLFRGAAIAGPLALLGVAHAQTTAPTSASLNATAGPLSIASSTVSSLAANGFGGGTIYYPTASGRFGVVAISPGFTASQSTIEWLGRRMASHGFVVITIDTITTLDYPDSRATQLRAALDHVINRASTTVRNKVDPARRAVAGHSMGGGGSLIAAQADSTLKAAYPMTPWNITENFSRVRVPTMIIGADGDTIAPVTSHARPFYASIPNTTFKAYGELNNATHFAPNVTNTPIGRYGVAWMKRFVDGDTRYSTFLCGAEQNRYNTSLVFDQYRSNCPY
B13: unnamed (protein)
chain: MKTLFKAAVLCGAMLTSLGVLAQANPYQKGPDPTVSNLEAARGSFAVSSTSISGLSATGFGGGSLHYPTAAGSYGLIAVAPPYLAQSSSIAWLGPRLASHGFVVVMIDVNSTLDFPESRSRQQLAAIDYAIAQSARTTSPIYRKVDTTRRGVSGHSMGGGASILTARNAPANIKGAFPLTPWSSDKNFSSLQVPTGYLACESDTVAANADHSLNFYNRMPASTPKGYYELRGESHFCPQSTANNPVIGKYLVAWMKRFVDNDTRFSPFLSGALPNADLSSRRFSALRTSGL
B14: unnamed (protein)
chain: MNKTILEKIAVGTGALLFSVSAFSFTPSPTPDPTPDPEPCQGECDFTRGPNPTSSYMEANAGPYTVRTSSVSGSVSGFGGGTVHYPTNTSGEMGAIAIVPGFLAGESSISWWGPRLASHGFVVITIATNSVFDQPGSRSTQLGRALDYLVSQSNSSNSPISGMVDASRLGAMGWSMGGGGVLRLASGSRLVAAIPLAPWNTGSNDFDQIQTPTMIMACENDSTARVGTHASPFYNSIPGSTDKAYLEINGGSHSCANGGGSNGGLLGKYGVSWMKLFMDEDTRYSQFLCGPNHAANGAISEYRDTCNY

Substrate in the data set: BHET
The conditions noted are these: 120 h.
Regarding B1, the plate clearing result is “not clears the plate”.
For B2 the value was “not clears the plate”; for B3, “not clears the plate”; for B4, “not clears the plate”.
To B5 belongs “not clears the plate”; to B6, “not clears the plate”.
To B7 belongs “not clears the plate”; to B8, “clears the plate (z > 3 vs empty vector)”; to B9, “not clears the plate”.
In the case of B10, the plate clearing entry is recorded as “not clears the plate”.
To B11 belongs “clears the plate (z > 3 vs empty vector)”.
To B12 belongs “not clears the plate”; to B13, “not clears the plate”.
For the protein B14, the plate clearing entry is listed as “not clears the plate”.
